Article PMC5460842

Molecular target: FLAG-EGFR incorporated into nanolipoprotein particles (EGFR-NLP) (not stated ("mammalian")) (UniProt P00533)
Assay: BLI; competition with biotinylated EGF on sensor, 100 nM EGFR-NLP; given as EC50

IC50: 5.87 nM
Substance: cetuximab
